Experimental data published in article PMC7793593 (Science Advances, 2021).

B1: HAdV-F41 hexon protein (natural protein, human adenovirus F41 (strain Tak))
chain: MATPSMMPQWSYMHIAGQDASEYLSPGLVQFARATDTYFSLGNKFRNPTVAPTHDVTTDRSQRLTLRFVPVDREDTAYSYKVRFTLAVGDNRVLDMASTYFDIRGVLDRGPSFKPYSGTAYNSLAPKTAPNPCEWKDNNKIKVRGQAPFIGTNINKDNGIQIGTDTTNQPIYADKTYQPEPQVGQTQWNSEVGAAQKVAGRVLKDTTPMLPCYGSYAKPTNEKGGQASLITNGTDQTLTSDVNLQFFALPSTPNEPKAVLYAENVSIEAPDTHLVYKPDVAQGTISSADLLTQQAAPNRPNYIGFRDNFIGLMYYNSTGNMGVLAGQASQLNAVVDLQDRNTELSYQLMLDALGDRSRYFSMWNQAVDSYDPDVRIIENHGVEDELPNYCFPLGGSAATDTYSGIKANGQTWTADDNYADRGAEIESGNIFAMEINLAANLWRSFLYSNVALYLPDSYKITPDNITLPENKNTYAYMNGRVAVPSALDTYVNIGARWSPDPMDNVNPFNHHRNAGLRYRSMLLGNGRYVPFHIQVPQKFFAIKNLLLLPGSYTYEWNFRKDVNMILQSSLGNDLRVDGASVRFDSINLYANFFPMAHNTASTLEAMLRNDTNDQSFNDYLCAANMLYPIPSNATSVPISIPSRNWAAFRGWSFTRLKTKETPSLGSGFDPYFTYSGSVPYLDGTFYLNHTFKKVSIMFDSSVSWPGNDRLLTPNEFEIKRTVDGEGYNVAQCNMTKDWFLIQMLSHYNIGYQGFYVPESYKDRMYSFFRNFQPMSRQVVNTTTYKEYQNVTLPFQHNNSGFVGYMGPTMREGQAYPANYPYPLIGQTAVPSLTQKKFLCDRTMWRIPFSSNFMSMGALTDLGQNMLYANSAHALDMTFEVDPMDEPTLLYVLFEVFDVVRIHQPHRGVIEAVYLRTPFSAGNATT

Key:
Assay in all cases: cryo-EM structure
[1] = molecular target: HAdV-F41 penton base protein, virion-bound (human adenovirus F41 (strain Tak))
[2] = molecular target: B1
[3] = molecular target: the molecule itself

| Molecule | stoichiometry N [1] | binding result [2] | stoichiometry N [3] |
| --- | --- | --- | --- |
| HAdV-F41 penton base protein, virion-bound (natural protein) | 5 |  |  |
| HAdV-F41 capsid protein IX (natural protein, human adenovirus F41 (strain Tak), UniProt P32539 1-133, looked up) MSGSMEGNAVSFKGGVFSPYLTTRLPAWAGVRQNVMGSNVDGRPVAPANSATLTYATVGSSVDTAAAAAASAAASTARGMAADFGLYNQLAASRSLREEDALSVVLTRMEELSQQLQDLFAKVALLNPPANAS |  | binds | 3 |
| B1 |  |  | 3 |
